In article PMC4634974, “Carbon Catabolite Repression and the Related Genes of ccpA, ptsH and hprK in Thermoanaerobacterium aotearoense” (PLoS ONE, 2015):
Where a chain is given by its changes, count along the chain named.

Key:
[1] = target: catabolite control protein A (CcpA) from T. aotearoense SCUT27 with a C-terminal His-tag (Thermoanaerobacterium aotearoense SCUT27) (UniProt T1SCF9); assay: SPR; SPRi (Plexera V3), 25°C; CcpA printed as spots on gold-coated sensor slides by amine coupling; HPr, HPrSerP or HPrM flowed as analytes at 2 μL/s, association and dissociation 300 s each; PBST pH 7.2 running buffer; BSA as reference; Langmuir binding model
catabolite control protein A (CcpA) from T. aotearoense SCUT27 with a C-terminal His-tag (Thermoanaerobacterium aotearoense SCUT27), sequence (T1SCF9 entry or part of it): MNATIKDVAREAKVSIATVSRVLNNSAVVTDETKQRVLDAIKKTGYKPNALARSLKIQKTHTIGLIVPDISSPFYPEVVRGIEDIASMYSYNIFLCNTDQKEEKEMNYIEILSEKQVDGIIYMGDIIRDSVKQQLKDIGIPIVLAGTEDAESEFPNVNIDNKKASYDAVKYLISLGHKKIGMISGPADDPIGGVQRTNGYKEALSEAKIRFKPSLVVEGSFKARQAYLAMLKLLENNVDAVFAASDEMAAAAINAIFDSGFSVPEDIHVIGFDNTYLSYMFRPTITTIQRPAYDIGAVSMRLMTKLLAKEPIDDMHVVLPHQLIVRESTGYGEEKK

[2] = target: T1, HPrK/P (HPr kinase/phosphatase) (Thermoanaerobacterium aotearoense, UniProt A0A0S1LJ76); assay: HPr phosphorylation, Phos-tag SDS-PAGE; type: biochemical; conditions: 5 mM ATP, 50 uM HPr, 5 mM MgCl2, 10 mM NaCl, 100 mM Tris-Cl pH 7.0, 37 C, 10 min
T1 construct: protein substrate recombinant HPr (KR818834) of the same strain
T1 sequence (A0A0S1LJ76 1-304): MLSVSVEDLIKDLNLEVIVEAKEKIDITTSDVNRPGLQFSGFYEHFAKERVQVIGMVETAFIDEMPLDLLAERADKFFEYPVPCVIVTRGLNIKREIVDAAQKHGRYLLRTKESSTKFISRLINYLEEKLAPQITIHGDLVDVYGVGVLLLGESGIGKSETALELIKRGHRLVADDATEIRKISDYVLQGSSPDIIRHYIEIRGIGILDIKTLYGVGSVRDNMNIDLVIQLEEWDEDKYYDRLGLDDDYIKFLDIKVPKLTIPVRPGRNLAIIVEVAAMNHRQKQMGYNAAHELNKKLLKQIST

[3] = target: T2, catabolite control protein A (CcpA) from T. aotearoense SCUT27 with a C-terminal His-tag (Thermoanaerobacterium aotearoense SCUT27, UniProt T1SCF9 1-336); assay: SPR; SPRi (Plexera V3), 25°C; CcpA printed as spots on gold-coated sensor slides by amine coupling; HPr, HPrSerP or HPrM flowed as analytes at 2 μL/s, association and dissociation 300 s each; PBST pH 7.2 running buffer; BSA as reference; Langmuir binding model; conditions: both partners purified
T2 construct: CcpA, catabolite control protein A, Thermoanaerobacterium aotearoense SCUT27; ORF of 336 amino acids (ccpA gene, 1011 bp, GenBank KC899078); full-length gene cloned into pET30a (NdeI/XhoI); The genomic primer begins with GTG, the expression primer Tc-F with ATG; Cloning through XhoI of pET30a probably adds LE before the His-tag (surmised); also called pET-CcpA product; source: E. coli BL21(DE3), …
T2 sequence (T1SCF9 entry or part of it): as the sequence (T1SCF9 entry or part of it) above

Histidine-containing Protein (HPr) from T. aotearoense SCUT27 with a C-terminal His-tag, not phosphorylated (natural protein)
Kd [1]: 2290 nM | koff [1]: 0.000922 s⁻¹ | kon [1]: 403 M⁻¹ s⁻¹

Nc1ncnc2c1ncn2[C@@H]1O[C@H](COP(=O)(O)OP(=O)(O)OP(=O)(O)O)[C@@H](O)[C@H]1O [ATP]
HPr phosphorylation, Phos-tag SDS-PAGE [2]: HPrK/P lost its kinase activity when there was no ATP in the reaction mixture

B1: HPrM, HPr from T. aotearoense SCUT27 with Ser46 mutated to Ala, C-terminal His-tag (natural protein)
chain: MTEKTVEIKNKTGLHARPAALFVQAASKFSSQIWVEKENKKVNAKAIMGIMSLGVAQGNTVKLIADGSDEQEAIKTLVDLIDSKFGEE
Kd [3]: 6010 nM | koff [3]: 0.000576 s⁻¹ | kon [3]: 95.8 M⁻¹ s⁻¹

B2: seryl-phosphorylated HPr (HPrSerP) from T. aotearoense SCUT27 with a C-terminal His-tag (natural protein, Thermoanaerobacterium aotearoense SCUT27, UniProt A0A0S1LJA4 1-88, looked up)
chain: B1 chain with A46S
modifications: phosphoserine at 46
notes: HPr, histidine-containing protein, Thermoanaerobacterium aotearoense SCUT27; ORF of 88 amino acids (ptsH gene, GenBank KR818834); full-length gene cloned into pET30a (NdeI/HindIII); phosphorylated at Ser46; Same chain as m3, phosphorylated at Ser46 by recombinant HPrK/P; also called HPrK/P treated HPr; source: E. coli BL21(DE3), purified (HiTrap Chelating HP, desalting column), phosphorylated in …
Kd [3]: 2.22 nM | koff [3]: 7.78e-07 s⁻¹ | kon [3]: 350 M⁻¹ s⁻¹
